In US20050222009A1, “Dual phase - PNA conjugates for the delivery of PNA through the blood brain barrier” (priority 2003, published 2005):

System: PC12 cells
Assay: Measurement of cellular toxicity by neutral red uptake
Assay type: cell-based, rat
Conditions: 48 hours incubation (FIG. 2); compared with control PNA
Description: As an in vitro models for neurons and for BBB we used the human neuroblastoma NMB cell line the rat catecholaminergic cell line PC12 and the mice brain-derived endothelial cell line bEND. NMB cells were adapted to grow in Dulbecco modified Eagle medium (DMEM) with 10% Hyclone calf serum (Simantov et al., 1996). PC12 cells were grown in DMEM, 10% horse serum and 5% calf serum. bEND3 cells were grown in DMEM, %10 calf serum supplemented with 2 mM glutamine. Cells were maintained in a 10% CO2 humidified incubator at 37° C. Cells were routinely sub-cultured every four to five days. When cells (5×10^3) were plated in 96 wells, dishes were pretreated with poly-L-ornithine.
PC12 cells were incubated with PNA or peptide-PNA conjugates for 48 hours. At the end of the incubation, cell morphology was examined by light microscopy. Medium was replaced with medium containing neutral red. Neutral-red uptake was determined by spectrophotometer and was used as an index for cellular toxicity (FIG. 2).

Row | Substance | neutral red uptake to PC12 cells (index for cellular toxicity)
1 | CHK6HC-TTT GCT CTT ACT CAT-HAIYPRH [KBP11] | no significant difference
2 | CHK6HC-TTT GCT CTT ACT CAT-THRPPMWSPVWP [KBP10] | no significant difference
